Data: the FLAb antibody collection (doi:10.7554/elife.23156)

B1: scFv; the commonest letter at each place (parent)
chain 1: EVKLDETGGGLVQPGRPMKLSCVASGFTFSDYWMNWVRQSPEKGLEWVAQIRNKPYNYETYYSDSVKGRFTISRDDSKSSVYLQMNNLRVEDMGIYYCTGSYYGMDYWGQGTSVTVS
chain 2: DVVMTQTPLSLPVSLGDQASISCRSSQSLVHSNGNTYLRWYLQKPGQSPKVLIYKVSNRFSGVPDRFSGSGSGTDFTLKISRVEAEDLGVYFCSQSTHVPWTFGGGTKLEIK

Columns and labels:
fluorescein = variants of: B1; experiment: Kd (Tite-Seq); conditions: with fluorescein; format: scFv 4-4-20, heavy + light
[1] = variants of: B1; experiment: yeast surface expression (ratio to wild type); higher = more expressed; conditions: format: scFv 4-4-20, heavy + light

Row | Variant | Kd (fluorescein) | yeast surface expression [1]
1 | chain 1 T28M M34N | 0.403 µM | 0.566
2 | chain 1 G104W G109R | ≥ 10 µM | 0.171
3 | chain 1 G104W G109E | ≥ 10 µM | 0.167
4 | chain 1 F29W W36Y | ≥ 10 µM | 0.591
5 | chain 1 G100M Y107T | ≥ 10 µM | 0.729
6 | chain 1 W108Q G109E | ≥ 10 µM | 0.459
7 | chain 1 N35W V37G | 0.021 µM | 1.18
8 | chain 1 N35Q W36M | ≥ 10 µM | 0.504
9 | chain 1 D31W W33L N35I | ≥ 10 µM | 0.49
10 | chain 1 V37G | 0.071 µM | 0.58
11 | chain 1 V37E | ≥ 10 µM | 0.597
12 | chain 1 V37K | 3.55 µM | 0.351
13 | chain 1 V37W | 9.02 µM | 0.746
14 | chain 1 T28Y D31V | ≥ 10 µM | 0.509
15 | chain 1 D106N G109N | ≥ 10 µM | 0.301
16 | chain 1 D31Y V37Q | 0.0592 µM | 1.38
17 | chain 1 G100R D106V | ≥ 10 µM | 0.108
18 | chain 1 M105V G109I | ≥ 10 µM | 0.203
19 | chain 1 F29M W33C | ≥ 10 µM | 0.983
20 | chain 1 F29M W33M | ≥ 10 µM | 0.873
21 | chain 1 S101D G109H | ≥ 10 µM | 0.247
22 | chain 1 S30Y D31A N35A | ≥ 10 µM | 0.451
23 | chain 1 M105P Y107H | ≥ 10 µM | 0.635
24 | chain 1 S30K W36E | ≥ 10 µM | 1.31

Row | Variant | Kd (fluorescein) | yeast surface expression [1]
25 | chain 1 S30M V37E | 0.0107 µM | 0.721
26 | chain 1 W36H V37F | ≥ 10 µM | 0.307
27 | chain 1 M34F V37C | 0.00104 µM | 0.75
28 | chain 1 F29D M34I | ≥ 10 µM | 0.946
29 | chain 1 T28C V37N | ≥ 10 µM | 0.357
30 | chain 1 S30D D31G W33A | ≥ 10 µM | 0.663
31 | chain 1 T28K F29Y | 0.000504 µM | 0.984
32 | chain 1 G100Y D106S | ≥ 10 µM | 0.505
33 | chain 1 F29K S30A W36A | 0.0767 µM | 0.756
34 | chain 1 Y103S M105R | 0.176 µM | 0.819
35 | chain 1 G104E G109Y | ≥ 10 µM | 0.384
36 | chain 1 T28S W33S | ≥ 10 µM | 0.919
37 | chain 1 S30N W36N | ≥ 10 µM | 0.265
38 | chain 1 M105Q | 0.0423 µM | 1.23
39 | chain 1 M105S | ≥ 10 µM | 0.889
40 | chain 1 M105E | 4.15 µM | 1.01
41 | chain 1 M105R | 0.021 µM | 1
42 | chain 1 D31M Y32V | ≥ 10 µM | 0.528
43 | chain 1 T28C | 0.00179 µM | 0.965
44 | chain 1 T28S | 0.00325 µM | 0.985
45 | chain 1 Y103L D106P | ≥ 10 µM | 0.559
46 | chain 1 G100K G104H | ≥ 10 µM | 0.322
47 | chain 1 G100K G104C | 4.6 µM | 0.182
48 | chain 1 M105H G109T | ≥ 10 µM | 0.442

Row | Variant | Kd (fluorescein) | yeast surface expression [1]
49 | chain 1 S30I W33Y V37P | 7.33 µM | 0.0571
50 | chain 1 T28I D31A | 0.00309 µM | 0.566
51 | chain 1 Y102L M105I | ≥ 10 µM | 1.57
52 | chain 1 Y107K W108A | ≥ 10 µM | 0.575
53 | chain 1 W36F | 0.0015 µM | 0.954
54 | chain 1 W36C | ≥ 10 µM | 0.561
55 | chain 1 W33S M34T | ≥ 10 µM | 0.463
56 | chain 1 S101F G109S | ≥ 10 µM | 0.424
57 | chain 1 W33E M34L | ≥ 10 µM | 0.721
58 | chain 1 Y102L D106R | ≥ 10 µM | 0.344
59 | chain 1 Y102L D106W | ≥ 10 µM | 0.238
60 | chain 1 M34I W36S | ≥ 10 µM | 0.556
61 | chain 1 F29H W36C | ≥ 10 µM | 0.281
62 | chain 1 S101R Y103K | ≥ 10 µM | 0.984
63 | chain 1 Y103Q W108A | 0.712 µM | 0.644
64 | chain 1 Y32P N35Y | ≥ 10 µM | 0.488
65 | chain 1 T28S F29Q | 0.00638 µM | 0.969
66 | chain 1 S101Q M105S | ≥ 10 µM | 0.853
67 | chain 1 T28Y N35E | ≥ 10 µM | 0.319
68 | chain 1 G100Q G109E | ≥ 10 µM | 0.304
69 | chain 1 D106N W108I | 0.00871 µM | 0.556
70 | chain 1 W108I G109F | 0.02 µM | 0.186
71 | chain 1 S101C Y107S | ≥ 10 µM | 0.457
72 | chain 1 G104R D106M | ≥ 10 µM | 0.275

Row | Variant | Kd (fluorescein) | yeast surface expression [1]
73 | chain 1 G104L Y107C | ≥ 10 µM | 0.133
74 | chain 1 F29A W36H | ≥ 10 µM | 0.912
75 | chain 1 D106H Y107D | ≥ 10 µM | 0.284
76 | chain 1 Y103W | 0.228 µM | 0.862
77 | chain 1 M34K V37W | ≥ 10 µM | 0.494
78 | chain 1 G104S Y107K | ≥ 10 µM | 0.796
79 | chain 1 Y32H M34Q | ≥ 10 µM | 0.862
80 | chain 1 T28G M34P N35T | ≥ 10 µM | 0.318
81 | chain 1 W36L V37Q | ≥ 10 µM | 0.537
82 | chain 1 S30M D31S | 0.00265 µM | 0.671
83 | chain 1 S30M D31F | 5.66 µM | 0.611
84 | chain 1 T28Y F29W | ≥ 10 µM | 0.672
85 | chain 1 Y107D W108Q | ≥ 10 µM | 0.706
86 | chain 1 G100A Y103K G109T | 3.2 µM | 0.753
87 | chain 1 G100L | ≥ 10 µM | 0.747
88 | chain 1 G100M | ≥ 10 µM | 0.759
89 | chain 1 T28V M34S | 0.0353 µM | 0.593
90 | chain 1 Y102N D106E | ≥ 10 µM | 1.27
91 | chain 1 Y103H Y107Q | ≥ 10 µM | 0.941
92 | chain 1 G104H Y107M | ≥ 10 µM | 0.478
93 | chain 1 D31Y N35I | ≥ 10 µM | 0.469
94 | chain 1 F29L W33Y | ≥ 10 µM | 0.732
95 | chain 1 Y103A Y107T | 0.11 µM | 1.13
96 | chain 1 Y102G Y103K G109K | ≥ 10 µM | 0.425

Row | Variant | Kd (fluorescein) | yeast surface expression [1]
97 | chain 1 Y103D M105N | ≥ 10 µM | 1.19
98 | chain 1 M105F D106L | ≥ 10 µM | 0.356
99 | chain 1 Y103E Y107V | ≥ 10 µM | 1.07
100 | chain 1 G100D G104A | ≥ 10 µM | 0.116
101 | chain 1 G100Y M105S | ≥ 10 µM | 0.377
102 | chain 1 S30F M34Y | 0.00871 µM | 0.762
103 | chain 1 Y107K | ≥ 10 µM | 0.637
104 | chain 1 Y107E | 1.72 µM | 0.803
105 | chain 1 G100D D106Q | ≥ 10 µM | 0.17
106 | chain 1 F29W W33S | ≥ 10 µM | 0.431
107 | chain 1 Y32M W36M | ≥ 10 µM | 0.672
108 | chain 1 S101W D106I | ≥ 10 µM | 0.296
109 | chain 1 G104V | ≥ 10 µM | 0.536
110 | chain 1 G104F W108R | 0.02 µM | 0.146
111 | chain 1 G104F W108F | ≥ 10 µM | 0.387
112 | chain 1 Y107F G109N | ≥ 10 µM | 0.555
113 | chain 1 T28D D31E V37E | ≥ 10 µM | 0.567
114 | chain 1 Y32T V37H | ≥ 10 µM | 0.624
115 | chain 1 G100Y G104C | ≥ 10 µM | 0.183
116 | chain 1 S30H | 0.00317 µM | 0.839
